Data set [1] deals with the molecule itself. Description: SEC-MALS; HPLC-MALS; Bio SEC-5 HPLC column (300 Å), 20 mM Tris-HCl (pH 7.5), 200 mM NaCl; 100 μl of purified (Sa)EctC at 2 mg ml^-1 loaded. For orientation: SEC sorts molecules by how far they enter the pores of the column.
Substrate in data set [2]: CC(=O)N[C@@H](CCN)C(=O)O
Description: HPLC assay of ectoine formation, Michaelis-Menten. The following applies: 20 mM Tris pH 8.5, 200 mM NaCl, 1 mM FeCl2, 15 °C, 20 min, 0-200 mM substrate. Type of data set: biochemical, Sphingopyxis alaskensis.

Substrate in data set [3]: CC(=O)NCC[C@H](N)C(=O)O
Description: HPLC assay of ectoine formation, Michaelis-Menten. Format: biochemical, Sphingopyxis alaskensis. The following applies: 20 mM Tris pH 8.5, 200 mM NaCl, 1 mM FeCl2, 15 °C, 20 min, 0-40 mM substrate.

Here are results for one protein from article PMC4795551, “Biochemistry and Crystal Structure of Ectoine Synthase: A Metal-Containing Member of the Cupin Superfamily” (PLoS ONE, 2016).

B1: ectoine synthase from Sphingopyxis alaskensis, (Sa)EctC-Strep-tag II protein (enzyme, UniProt Q1GNW6 1-137, looked up)
chain: MIVRNLGDIRKTDRNVRSDGWASARMLLKDDGMGFSFHVTTLFAGSELRMHYQNHLEAVLVLKGTGTIEDLATGEVHALRPGVMYALDDHDRHIVRPETDILTACVFNPPVTGREVHDESGAYPADPELAREPVAAD
notes: Ectoine synthase EctC (EC 4.2.1.108) of Sphingopyxis alaskensis, 137 amino acids; made from a codon-optimised synthetic ectC gene; printed stretches: 1-MIVRN-5 and 82-GVMYAL-87; Monomer with tag 16.3 kDa; In the crystals only Met-1 to Glu-115 (open) or Met-1 to Gly-121 (protomer A, semi-closed) are resolved; not shown: Strep-tag II, C-terminal, kept
Usually stoichiometry N stands for the number of molecules, sites or subunits per partner or assembly. As usually defined, the Km is the substrate concentration at which the rate is half of its maximum. The kcat is the number of substrate molecules converted per active site and unit of time at saturation. For the protein B1, the “stoichiometry N” value in data set [1] came out at 2. Further, the Michaelis-Menten constant (Km) in data set [2] came out at 25.4 ± 2.9 mM; in data set [3] it was 4.9 ± 0.5 mM. Also, the kcat in data set [2] was determined as 0.6 s⁻¹; in data set [3], 7.2 s⁻¹.
